The values below are quoted from earlier work in article PMC6620384.

Broadly, the Kd is the concentration at which binding is half-saturated.

The target of this data set is UNC5B-Fc (UniProt Q8IZJ1). The experiment in a line: SPR.
UniProt Q8IZJ1, sequence (Q8IZJ1 27-377): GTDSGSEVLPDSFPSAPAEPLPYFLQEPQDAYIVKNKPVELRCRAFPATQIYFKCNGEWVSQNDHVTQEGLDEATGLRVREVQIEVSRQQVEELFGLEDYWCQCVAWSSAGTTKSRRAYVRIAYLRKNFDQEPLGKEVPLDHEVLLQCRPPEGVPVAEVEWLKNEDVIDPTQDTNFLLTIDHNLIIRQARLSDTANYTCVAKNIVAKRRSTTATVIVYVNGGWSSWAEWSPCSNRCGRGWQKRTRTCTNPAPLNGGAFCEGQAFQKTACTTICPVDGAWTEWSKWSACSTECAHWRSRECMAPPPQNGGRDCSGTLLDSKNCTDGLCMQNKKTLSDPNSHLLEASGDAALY

Robo4-Fc (from UniProt Q8WZ75): the dissociation constant (Kd) was 12 nM.
